Test results from US20250163167A1 (SYNTHEKINE, published 2025).
Each block holds one binder with its values, some of them ahead of it.

Biological target: T1, human IL-10 receptor (hIL-10R alpha and beta chains) on HEK-Blue IL-10 reporter cells (human, UniProt Q13651 22-578; Q08334 20-325)
T1 sequence 1: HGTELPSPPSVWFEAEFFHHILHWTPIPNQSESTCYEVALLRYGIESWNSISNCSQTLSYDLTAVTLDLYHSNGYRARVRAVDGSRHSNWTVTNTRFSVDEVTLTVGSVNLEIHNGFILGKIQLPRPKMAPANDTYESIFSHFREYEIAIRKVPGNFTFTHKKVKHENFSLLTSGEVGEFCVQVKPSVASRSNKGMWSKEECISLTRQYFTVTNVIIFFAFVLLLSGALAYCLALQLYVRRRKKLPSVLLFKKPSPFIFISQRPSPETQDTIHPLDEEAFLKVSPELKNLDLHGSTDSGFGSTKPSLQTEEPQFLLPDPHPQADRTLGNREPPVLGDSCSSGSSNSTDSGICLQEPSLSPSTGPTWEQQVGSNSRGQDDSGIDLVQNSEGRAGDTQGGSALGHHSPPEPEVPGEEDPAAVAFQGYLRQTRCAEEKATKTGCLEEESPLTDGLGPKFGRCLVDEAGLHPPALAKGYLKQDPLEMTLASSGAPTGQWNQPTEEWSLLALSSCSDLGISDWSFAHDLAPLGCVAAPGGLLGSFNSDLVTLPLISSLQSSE
T1 sequence 2: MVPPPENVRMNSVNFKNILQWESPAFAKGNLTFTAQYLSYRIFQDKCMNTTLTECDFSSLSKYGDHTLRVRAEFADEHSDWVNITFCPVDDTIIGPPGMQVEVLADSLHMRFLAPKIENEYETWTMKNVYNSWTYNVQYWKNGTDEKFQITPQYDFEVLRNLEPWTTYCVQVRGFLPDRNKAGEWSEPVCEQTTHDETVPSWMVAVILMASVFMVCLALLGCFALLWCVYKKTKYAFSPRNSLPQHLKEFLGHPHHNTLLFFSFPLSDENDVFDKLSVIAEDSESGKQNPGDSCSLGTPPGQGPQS
Assay: cell-based or functional assay

- Abs 630 (25 nM): 1.43 Abs 630
- Abs 630 (100 nM): 1.14 Abs 630
B1: IL10R binding molecule of SEQ ID NO: 334 (bispecific antibody)
chain: QVQLQESGGGSVEAGGSLRLSCAASGYTHSSYCMGWFRQAPGKEREGVAAIDVDGSTTYADSVKGRFTISKDNAKNTLYLQMNSLKPEDTGMYYCAAEFADCSSNYFLPPGAVRYWGQGTQVTVSSGGGSQVQLQESGGGSVQAGGSLRLSCAASRFTYSSYCMGWFRQAPGKEREGVASIDSDGSTSYTDSVKGRFTISKDNAKNTLYLQMNSLKPEDTAMYYCALDLMSTVVPGFCGFLLSAGMDYWGKGTQVTVSSASHHHHHH

- Abs 630 (25 nM): 0.5 Abs 630
- Abs 630 (100 nM): 0.44 Abs 630
B2: IL10R binding molecule of SEQ ID NO: 335 (bispecific antibody)
chain: QVQLQESGGGSVEAGGSLRLSCAASGYTHSSYCMGWFRQAPGKEREGVAAIDVDGSTTYADSVKGRFTISKDNAKNTLYLQMNSLKPEDTGMYYCAAEFADCSSNYFLPPGAVRYWGQGTQVTVSSGGGSQVQLQESGGGSVQAGGSLRLSCAASGYTYSMYCMGWFRQAPGKEREGVAQINSDGSTSYADSVKGRFTISKDNAKNTLYLQMNSLKPEDTAMYYCAADSRVYGGSWYERLCGPYTYEYNYWGQGTQVTVSSASHHHHHH

- Abs 630 (25 nM): 0.49 Abs 630
- Abs 630 (100 nM): 0.4 Abs 630
B3: IL10R binding molecule of SEQ ID NO: 337 (bispecific antibody)
chain: QVQLQESGGGSVEAGGSLRLSCAASGYTHSSYCMGWFRQAPGKEREGVAAIDVDGSTTYADSVKGRFTISKDNAKNTLYLQMNSLKPEDTGMYYCAAEFADCSSNYFLPPGAVRYWGQGTQVTVSSGGGSQVQLQESGGGSVQAGGSLRLSCTVSGYTYSSNCMGWFRQAPGKEREGVATIYTGGGNTYYADSVKGRFTISQDNAKNTVYLQMNNLKPEDTAMYYCAAEPLSRVYGGSCPTPTFDYWGQGTQVTVSSASHHHHHH

- Abs 630 (25 nM): 0.48 Abs 630
- Abs 630 (100 nM): 0.39 Abs 630
B4: IL10R binding molecule of SEQ ID NO: 329 (bispecific antibody)
chain: QVQLQESGGGSVQAGGSLRLSCTVSRYTASVNYMGWFRQAPGKEREGVATIFTGAGTTYYANSVKGRFTISRDNAKNTAYLQMNSLKPEDTAIYYCAVDFRGGLLYRPAYEYTYRGQGTQVTVSSGGGSQVQLQESGGGSVQAGGSLRLSCAVSGYAYSTYCMGWFRQAPGKEREGVAAIDSGGSTSYADSVKGRFTISKDNAKNTLYLRMNSLKPEDTAMYYCAAVPPPPDGGSCLFLGPEIKVSKADFRYWGQGTQVTVSSASHHHHHH

- Abs 630 (25 nM): 0.6 Abs 630
- Abs 630 (100 nM): 0.48 Abs 630
B5: IL10R binding molecule of SEQ ID NO: 341 (bispecific antibody)
chain: QVQLQESGGGSVQAGGSLRLSCAASGYSYSSYCMGWFRQAPGKEREGVATIDSDGMTRYADSVKGRFTISKDNAKNTLYLQMNSLKPEDTAMYYCAAPLYDCDSGAVGRNPPYWGQGTQVTVSSGGGSQVQLQESGGGSVQAGGSLRLSCAASRFTYSSYCMGWFRQAPGKEREGVASIDSDGSTSYTDSVKGRFTISKDNAKNTLYLQMNSLKPEDTAMYYCALDLMSTVVPGFCGFLLSAGMDYWGKGTQVTVSSASHHHHHH

- Abs 630 (25 nM): 0.45 Abs 630
- Abs 630 (100 nM): 0.36 Abs 630
B6: IL10R binding molecule of SEQ ID NO: 330 (bispecific antibody)
chain: QVQLQESGGGSVQAGGSLRLSCTVSRYTASVNYMGWFRQAPGKEREGVATIFTGAGTTYYANSVKGRFTISRDNAKNTAYLQMNSLKPEDTAIYYCAVDFRGGLLYRPAYEYTYRGQGTQVTVSSGGGSQVQLQESGGGSVQAGGSLRLSCTVSGYTYSSNCMGWFRQAPGKEREGVATIYTGGGNTYYADSVKGRFTISQDNAKNTVYLQMNNLKPEDTAMYYCAAEPLSRVYGGSCPTPTFDYWGQGTQVTVSSASHHHHHH

- Abs 630 (25 nM): 0.5 Abs 630
- Abs 630 (100 nM): 0.41 Abs 630
B7: IL10R binding molecule of SEQ ID NO: 331 (bispecific antibody)
chain: QVQLQESGGGSVQAGGSLRLSCTVSRYTASVNYMGWFRQAPGKEREGVATIFTGAGTTYYANSVKGRFTISRDNAKNTAYLQMNSLKPEDTAIYYCAVDFRGGLLYRPAYEYTYRGQGTQVTVSSGGGSQVQLQESGGGSVQAGGSLRLSCGASGYTYSSYCMGWFRQVPGKEREGVAVIDSDGSTSYADSVKGRFTISKDNGKNTLYLQMNSLKPEDTAMYYCAADLGHYRPPCGVLYLGMDYWGKGTQVTVSSASHHHHHH

- Abs 630 (25 nM): 1.77 Abs 630
- Abs 630 (100 nM): 1.02 Abs 630
B8: IL10R binding molecule of SEQ ID NO: 263 (bispecific antibody)
chain: QVQLQESGGGSVQAGGSLRLSCAASRFTYSSYCMGWFRQAPGKEREGVASIDSDGSTSYTDSVKGRFTISKDNAKNTLYLQMNSLKPEDTAMYYCALDLMSTVVPGFCGFLLSAGMDYWGKGTQVTVSSGGGSQVQLQESGGGSVQAGGSLRLSCAASGYTYSSGCMGWFRQAPGKEREAVAAINSDGSTSYADSVKGRFTISKDNAKNTLYLQMNSLKPEDTAMYYCAAEPYCSGGYPRWSVAEFGYWGQGTQVTVSSASHHHHHH

- Abs 630 (25 nM): 0.51 Abs 630
- Abs 630 (100 nM): 0.41 Abs 630
B9: IL10R binding molecule of SEQ ID NO: 338 (bispecific antibody)
chain: QVQLQESGGGSVEAGGSLRLSCAASGYTHSSYCMGWFRQAPGKEREGVAAIDVDGSTTYADSVKGRFTISKDNAKNTLYLQMNSLKPEDTGMYYCAAEFADCSSNYFLPPGAVRYWGQGTQVTVSSGGGSQVQLQESGGGSVQAGGSLRLSCGASGYTYSSYCMGWFRQVPGKEREGVAVIDSDGSTSYADSVKGRFTISKDNGKNTLYLQMNSLKPEDTAMYYCAADLGHYRPPCGVLYLGMDYWGKGTQVTVSSASHHHHHH

- Abs 630 (25 nM): 0.49 Abs 630
- Abs 630 (100 nM): 0.54 Abs 630
B10: IL10R binding molecule of SEQ ID NO: 333 (bispecific antibody)
chain: QVQLQESGGGSVEAGGSLRLSCAASGYTHSSYCMGWFRQAPGKEREGVAAIDVDGSTTYADSVKGRFTISKDNAKNTLYLQMNSLKPEDTGMYYCAAEFADCSSNYFLPPGAVRYWGQGTQVTVSSGGGSQVQLQESGGGSVQAGGSLRLSCAASRYLYSIDYMAWFRQSPGKEREPVAVIYTASGATFYPDSVKGRFTISQDNAKMTVYLQMNSLKSEDTAMYYCAAVRKTDSYLFDAQSFTYWGQGTQVTVSSASHHHHHH

- Abs 630 (25 nM): 0.54 Abs 630
- Abs 630 (100 nM): 0.45 Abs 630
B11: IL10R binding molecule of SEQ ID NO: 336 (bispecific antibody)
chain: QVQLQESGGGSVEAGGSLRLSCAASGYTHSSYCMGWFRQAPGKEREGVAAIDVDGSTTYADSVKGRFTISKDNAKNTLYLQMNSLKPEDTGMYYCAAEFADCSSNYFLPPGAVRYWGQGTQVTVSSGGGSQVQLQESGGGSVQAGGSLRLSCAVSGYAYSTYCMGWFRQAPGKEREGVAAIDSGGSTSYADSVKGRFTISKDNAKNTLYLRMNSLKPEDTAMYYCAAVPPPPDGGSCLFLGPEIKVSKADFRYWGQGTQVTVSSASHHHHHH

- Abs 630 (25 nM): 1.38 Abs 630
- Abs 630 (100 nM): 0.4 Abs 630
B12: IL10R binding molecule of SEQ ID NO: 262 (bispecific antibody)
chain: QVQLQESGGGSVQAGGSLRLSCAASRYLYSIDYMAWFRQSPGKEREPVAVIYTASGATFYPDSVKGRFTISQDNAKMTVYLQMNSLKSEDTAMYYCAAVRKTDSYLFDAQSFTYWGQGTQVTVSSGGGSQVQLQESGGGSVQTGGSLRLSCAASGYTYLRGCMGWFRQAPGKEREGVAVMDVVGDRRSYIDSVKGRFTISRDNAANSVYLQMDNLKPEDTAMYYCTAGPNCVGWRSGLDYWGQGTQVTVSSASHHHHHH

- Abs 630 (25 nM): 0.46 Abs 630
- Abs 630 (100 nM): 0.51 Abs 630
B13: IL10R binding molecule of SEQ ID NO: 340 (bispecific antibody)
chain: QVQLQESGGGSVQAGGSLRLSCAASGYSYSSYCMGWFRQAPGKEREGVATIDSDGMTRYADSVKGRFTISKDNAKNTLYLQMNSLKPEDTAMYYCAAPLYDCDSGAVGRNPPYWGQGTQVTVSSGGGSQVQLQESGGGSVQAGGSLRLSCAASRYLYSIDYMAWFRQSPGKEREPVAVIYTASGATFYPDSVKGRFTISQDNAKMTVYLQMNSLKSEDTAMYYCAAVRKTDSYLFDAQSFTYWGQGTQVTVSSASHHHHHH

- Abs 630 (25 nM): 0.45 Abs 630
- Abs 630 (100 nM): 0.36 Abs 630
B14: IL10R binding molecule of SEQ ID NO: 342 (bispecific antibody)
chain: QVQLQESGGGSVQAGGSLRLSCAASGYSYSSYCMGWFRQAPGKEREGVATIDSDGMTRYADSVKGRFTISKDNAKNTLYLQMNSLKPEDTAMYYCAAPLYDCDSGAVGRNPPYWGQGTQVTVSSGGGSQVQLQESGGGSVQAGGSLRLSCAASGYTYSMYCMGWFRQAPGKEREGVAQINSDGSTSYADSVKGRFTISKDNAKNTLYLQMNSLKPEDTAMYYCAADSRVYGGSWYERLCGPYTYEYNYWGQGTQVTVSSASHHHHHH

- Abs 630 (25 nM): 0.47 Abs 630
- Abs 630 (100 nM): 0.36 Abs 630
B15: IL10R binding molecule of SEQ ID NO: 332 (bispecific antibody)
chain: QVQLQESGGGSVQAGGSLRLSCTVSRYTASVNYMGWFRQAPGKEREGVATIFTGAGTTYYANSVKGRFTISRDNAKNTAYLQMNSLKPEDTAIYYCAVDFRGGLLYRPAYEYTYRGQGTQVTVSSGGGSQVQLQESGGGSVQAGGSLRLSCAASGYSNCSYDMTWYRQAPGKEREFVSAIHSDGSTRYADSVKGRFFISQDNAKNTVYLQMNSLKPEDTAMYYCKTDPLHCRAHGGSWYSVRANYWGQGTQVTVSSASHHHHHH

- Abs 630 (25 nM): 0.49 Abs 630
- Abs 630 (100 nM): 0.42 Abs 630
B16: IL10R binding molecule of SEQ ID NO: 339 (bispecific antibody)
chain: QVQLQESGGGSVEAGGSLRLSCAASGYTHSSYCMGWFRQAPGKEREGVAAIDVDGSTTYADSVKGRFTISKDNAKNTLYLQMNSLKPEDTGMYYCAAEFADCSSNYFLPPGAVRYWGQGTQVTVSSGGGSQVQLQESGGGSVQAGGSLRLSCAASGYSNCSYDMTWYRQAPGKEREFVSAIHSDGSTRYADSVKGRFFISQDNAKNTVYLQMNSLKPEDTAMYYCKTDPLHCRAHGGSWYSVRANYWGQGTQVTVSSASHHHHHH
